Consider nine molecules from article PMC5663475, “SAV1 promotes Hippo kinase activation through antagonizing the PP2A phosphatase STRIPAK” (eLife, 2017).

The target in data set [1] is T1, MOB1^33-216 (Homo sapiens, UniProt Q9H8S9).
T1 construct: recombinant MOB1^33-216 and pT378-MST2 peptides
T1 sequence (Q9H8S9 33-216): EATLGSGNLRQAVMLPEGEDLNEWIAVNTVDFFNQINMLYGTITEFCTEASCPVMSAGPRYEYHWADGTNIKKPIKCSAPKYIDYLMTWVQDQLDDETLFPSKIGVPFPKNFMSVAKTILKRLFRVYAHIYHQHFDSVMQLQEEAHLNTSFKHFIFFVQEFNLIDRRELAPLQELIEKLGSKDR
Kind of data set: ITC, MOB1^33-216 with phospho-MST2 peptides. The data set is classed as binding. The note with it: MicroCal iTC200, 20 °C, 20 mM Tris pH 8.0, 50 mM NaCl, 50 µM protein titrated with 500 µM peptide, measured as controls. On the procedure:
The binding affinities between purified recombinant human SLMAP-FHA (residues 1–140) and the phospho-MST2 peptides were measured using a MicroCal iTC200 calorimeter (GE Healthcare) at 20 °C. The binding affinities between recombinant MOB1^33-216 and pT378-MST2 peptides were measured as controls. Ratio of protein to peptide concentration was 1:10 for each experiment. A 50 µM SLMAP-FHA or MOB1^33-216 sample in the buffer containing 20 mM Tris, pH 8.0, 50 mM NaCl was titrated with 500 µM of phospho-MST2 peptide in the same buffer. All phospho-MST2 peptides were synthesized with the following sequences: pT325-MST2^320-329, ELDSHpTMVKT; pT336-MST2^331-340, VESVGpTMRAT; pT378-MST2^373-382, EEEDGpTMKRN; and pT378-MST2^371-401, DEEEEDGp[…]. Due to low solubility of pT325-MST2^320-329, 5% (v/v) DMSO was added to both protein and peptide buffers. Peptide concentration was measured using the spectrophotometer at wavelength λ = 205 nm. In all cases, thermograms were integrated using NITPIC method ([Keller et al., 2012]), imported to the SEDPHAT software ([Zhao et al., 2015]), and binding-model fits (A + B < ->AB) were made by fixing the protein concentration adjustment coefficients and allowing the software to adjust peptide concentration by a correction coefficient, as it is not 100% accurate due to the nature of the concentration measurements. […]

Data set [2] has as its target human SAV1 WW2 (human) (UniProt Q9H4B6). Put plainly: SEC; recombinant SAV1 WW1 and WW2 on a Superdex 75 gel filtration column.
The target of data set [3] is SLMAP (UniProt Q14BN4). Put plainly: anti-FLAG IP, anti-SLMAP blot. The conditions noted are these: reference: MST2 wild type; sites T325,T336,T378.
Data set [4] has as its target T2, MST2-FL (recombinant full-length MST2) (human, UniProt Q13188 1-491).
T2 construct: MST2, human, full length; also called full-length (FL) MST2; source: E. coli BL21 (DE3)-T1R, purified; alone or co-expressed and co-purified with SAV1 C-terminal fragments
T2 sequence (looked up): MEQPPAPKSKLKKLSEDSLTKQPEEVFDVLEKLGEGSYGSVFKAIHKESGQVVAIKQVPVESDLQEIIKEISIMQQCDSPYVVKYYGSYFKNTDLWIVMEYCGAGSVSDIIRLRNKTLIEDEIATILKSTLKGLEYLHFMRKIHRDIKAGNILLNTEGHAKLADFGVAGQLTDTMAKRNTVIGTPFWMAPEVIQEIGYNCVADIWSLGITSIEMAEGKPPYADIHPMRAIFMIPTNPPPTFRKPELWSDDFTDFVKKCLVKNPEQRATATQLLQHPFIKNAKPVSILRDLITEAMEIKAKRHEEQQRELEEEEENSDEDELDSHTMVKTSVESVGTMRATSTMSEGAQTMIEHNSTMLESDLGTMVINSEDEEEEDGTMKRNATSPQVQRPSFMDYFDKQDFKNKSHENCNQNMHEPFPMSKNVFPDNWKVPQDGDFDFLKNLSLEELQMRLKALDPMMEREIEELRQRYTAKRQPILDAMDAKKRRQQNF
Put plainly: pull-down; GST-SLMAP FHA on glutathione-Sepharose beads as bait, purified MST2 proteins in TBS (50 mM Tris pH 7.5, 150 mM NaCl) with 0.05% Tween, 2 h; Coomassie-stained gel. The conditions noted are these: both partners purified.

Data set [5] concerns the target PP2A A subunit (recombinant) (human) (UniProt P30153).
Data set [6] concerns PP2A A-C. Kind of data set: In vitro PP2A inhibition assay (dephosphorylation of MST2 pT180). The data set is classed as biochemical. The conditions noted are these: 0.1 µM PP2A A-C, 1 µM MST2 KD, quantitative Western blot. On the procedure: For PP2A A-C phosphatase inhibition assays, 0.1 µM PP2A A-C was mixed with the indicated concentrations of SAV1^1-90 and incubated at room temperature for 15 min. […] After 30 min incubation, 15 µl reaction mixture was quenched by the addition of the same volume of 2X SDS sample buffer and boiled for 5 min. The remaining pT180 of MST2 was analyzed by quantitative Western blot using a specific antibody against pT180 of MST2.

Data set [7] concerns PP2A A subunit. Put plainly: Gel filtration co-fractionation of SAV1^1-90 with PP2A A subunit. The format is binding. The note with it: Superdex 200 gel filtration; PP2A A : SAV1^1-90 1:6 molar ratio; 20 mM Tris pH 8.0, 50 mM NaCl, 1 mM TCEP. On the procedure: The N-terminal fragment of SAV1^1-90 was purified by denaturation method using 8 M urea according to the manufacturer’s instructions (Qiagen). SAV1^1-90 was refolded overnight at 4°C in a buffer containing 50 mM Tris (pH 7.5), 150 mM NaCl, 5 mM MgCl2, and 1 mM DTT. To obtain the PP2A A and SAV1^1-90 complex, PP2A A was mixed with refolded SAV1^1-90 at a 1:6 molar ratio and further purified by a Superdex 200 column equilibrated with a buffer containing 20 mM Tris (pH 8.0), 50 mM NaCl, and 1 mM TCEP. For comparison, PP2A A and SAV1^1-90 alone was run under the same condition, respectively.

Data set [8] deals with the molecule itself. Put plainly: AUC + SEC; sedimentation velocity at 4 °C, 50,000 rpm, 20 mM Tris pH 8.0, 200 mM NaCl, 5 mM MgCl2; gel filtration on Superdex 200; co-expressed and co-purified MST2-FL/SAV1 fragment complexes.
Data set [9] relates to MST2. Kind of data set: In vitro MST2 kinase assay using MOB1 as substrate. The data set is classed as biochemical, human. The conditions noted are these: 0.5 nM MST2, 0.4 µM MOB1, pT35-MOB1 quantitative Western blot; two biological replicates. On the procedure:
For in vitro kinase assays, 0.4 μM MST2-FL or MST2-ΔL was incubated in the kinase reaction buffer containing 50 mM Tris (pH 7.5), 150 mM NaCl, 10 mM MgCl2, 1 mM ATP, 1 mM DTT, and 0.1 μCi/μl γ-^32P-ATP with 40 μM myelin basic protein (MBP). At different time intervals, an aliquot of reaction mixture was added with equal volume of 2X SDS sample buffer and followed by boiling for 5 min in 100 °C water bath. All samples were separated by SDS-PAGE and analyzed by autoradiography. For in vitro kinase assays using MOB1 as substrate, 0.5 nM MST2 was incubated with 0.4 µM recombinant purified MOB1 in the kinase reaction buffer. The phosphorylated MOB1 was analyzed by quantitative Western blotting using a specific antibody against pT35 of MOB1 (Cell Signaling). The signals were quantified with the Odyssey LI-COR imaging system. For in vitro kinase assays using GST-MST2 D146N as substrate, the kinase reaction was performed with MST2 KD for 30 min at room temperature.

The subject of data set [10] is MST2. Kind of data set: MST2-SAV1 autophosphorylation (pT180). The data set is classed as biochemical, human. The note with it: 2.5 µM MST2-SAV1 complex, dephosphorylated by 0.5 µM PP2A A-C, then 5 µM okadaic acid; 2 mM ATP, anti-pT180 blot; at least two independent experiments. On the procedure: For assaying MST2-SAV1 autophosphorylation, 2.5 µM MST2-SAV1-ΔN198 or MST2-SAV1-ΔN268 was dephosphorylated by 0.5 µM PP2A A-C core complex for 30 min at room temperature. Okadaic acid was then added to a final concentration of 5 µM and the reaction mixture was incubated on ice for another 30 min. The reaction mixture was diluted by a ratio of 1:5 at room temperature with a kinase reaction buffer containing 50 mM Tris (pH 7.5), 150 mM NaCl, 5 mM MgCl2, 2 mM ATP, and 1 mM DTT. At different time intervals, autophosphorylation was terminated by adding 2X SDS loading buffer and boiling for 5 min in 100 °C water bath. All samples were separated by SDS-PAGE and blotted by a specific antibody against pT180 of MST2.

Non-standard residues stand in square brackets, D forms with d. Residues, ends and D or L forms follow the SMILES beside them. pT = C[C@@H](OP(=O)(O)O)[C@H](N)C(=O)O

Chain of PP2A A subunit (recombinant) (human) (P30153 whole entry): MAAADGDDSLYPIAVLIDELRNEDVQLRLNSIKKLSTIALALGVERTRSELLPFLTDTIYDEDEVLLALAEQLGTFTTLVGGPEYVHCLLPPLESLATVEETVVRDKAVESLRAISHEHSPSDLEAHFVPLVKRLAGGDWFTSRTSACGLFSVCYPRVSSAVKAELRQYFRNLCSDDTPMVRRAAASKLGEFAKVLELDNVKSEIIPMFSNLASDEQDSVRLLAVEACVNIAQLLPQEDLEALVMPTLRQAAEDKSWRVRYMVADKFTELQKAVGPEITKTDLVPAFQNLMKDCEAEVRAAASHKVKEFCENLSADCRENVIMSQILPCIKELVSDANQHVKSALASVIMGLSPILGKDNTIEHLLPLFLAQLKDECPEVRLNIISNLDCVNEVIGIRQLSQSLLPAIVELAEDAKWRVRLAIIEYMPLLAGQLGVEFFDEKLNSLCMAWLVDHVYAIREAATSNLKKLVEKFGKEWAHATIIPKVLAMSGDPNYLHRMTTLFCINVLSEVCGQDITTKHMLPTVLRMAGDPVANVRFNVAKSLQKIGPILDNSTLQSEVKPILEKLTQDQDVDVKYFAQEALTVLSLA

As for `CSCC[C@H](NC(=O)[C@H](Cc1ccccc1)NC(=O)[C@H](CO)NC(=O)[C@@H]1CCCN1C(=O)[C@H](CCCNC(=N)N)NC(=O)[C@H](CCC(N)=O)NC(=O)[C@@H](NC(=O)[C@H](CCC(N)=O)NC(=O)[C@@H]1CCCN1C(=O)[C@H](CO)NC(=O)[C@@H](NC(=O)[C@H](C)NC(=O)[C@H](CC(N)=O)NC(=O)[C@H](CCCNC(=N)N)NC(=O)[C@H](CCCCN)NC(=O)[C@H](CCSC)NC(=O)[C@@H](NC(=O)CNC(=O)[C@H](CC(=O)O)NC(=O)[C@H](CCC(=O)O)NC(=O)[C@H](CCC(=O)O)NC(=O)[C@H](CCC(=O)O)NC(=O)[C@H](CCC(=O)O)NC(=O)[C@@H](N)CC(=O)O)[C@@H](C)OP(=O)(O)O)[C@@H](C)O)C(C)C)C(=O)N[C@@H](CC(=O)O)C(=O)N[C@@H](Cc1ccc(O)cc1)C(=O)N[C@@H](Cc1ccccc1)C(=O)N[C@@H](CC(=O)O)C(=O)N[C@@H](CCCCN)C(=O)N[C@@H](CCC(N)=O)C(=O)N[C@@H](CC(=O)O)C(=O)O` [pT378-MST2^371-401] (H-DEEEEDG[pT]MKRNATSPQVQRPSFMDYFDKQD-OH), the affinity in [1], expressed as Kd, was 0.296 µM.

Take “human SAV1 WW2 (from UniProt Q9H4B6 1-383) (domain or fragment)”: the stoichiometry N in data set [2] amounted to 2.

Regarding `CSCC[C@H](NC(=O)[C@@H](NC(=O)CNC(=O)[C@H](CC(=O)O)NC(=O)[C@H](CCC(=O)O)NC(=O)[C@H](CCC(=O)O)NC(=O)[C@@H](N)CCC(=O)O)[C@@H](C)OP(=O)(O)O)C(=O)N[C@@H](CCCCN)C(=O)N[C@@H](CCCNC(=N)N)C(=O)N[C@@H](CC(N)=O)C(=O)O` [pT378-MST2^373-382] (H-EEEDG[pT]MKRN-OH), the dissociation constant (Kd) in data set [1] is 9.95 µM.

On to MST2 (from UniProt Q13188) MST2 3TA, for which the “binding against the reference” value in [3] is listed as “lost”.

B1: GST-SLMAP FHA (residues 1–140) (domain or fragment, human, UniProt Q14BN4 1-140, looked up)
chain: MPSALAIFTCRPNSHPFQERHVYLDEPIKIGRSVARCRPAQNNATFDCKVLSRNHALVWFDHKTGKFYLQDTKSSNGTFINSQRLSRGSEESPPCEILSGDIIQFGVDVTENTRKVTHGCIVSTIKLFLPDGMEARLRSD
notes: SLMAP, human, FHA domain, residues 1-140; also called GST-SLMAP FHA fusion protein; not shown: GST, N-terminal, kept
For the molecule B1, the binding result in [4] was “binds”.

B2: SAV1^1-90 (recombinant) (domain or fragment)
chain: MLSRKKTKNEVSKPAEVQGKYVKKETSPLLRNLMPSFIRHGPTIPRRTDICLPDSSPNAFSTSGDVVSRNQSFLRTPIQRTPHEIMRRES
Consider B2, for which the dephosphorylation of MST2 pT180 (1 µM MST2 kinase domain) by 0.1 µM PP2A A-C core in vitro, SAV1 1-90 at the indicated concentrations in [5] is 100 µM.

B3: SAV1 1–90: N-terminal fragment of SAV1 (residues 1–90), recombinant, refolded (protein)
chain: B2 chain
modifications: left off: FLAG, end not stated, kept
As for B3, the “inhibition of PP2A A-C dephosphorylation of MST2 pT180” value in [6] (15 min pre-incubation with SAV1^1-90 at room temperature, 20 mM Tris pH 8.0, 100 mM NaCl, 30 min) is given as “blocked the dephosphorylation of MST2 pT180 by PP2A A-C”. Further, the “concentration needed for PP2A A-C inhibition” value in data set [6] ("Very high and non-physiological concentrations" needed) was 100 µM. Further, the “co-fractionation with recombinant PP2A A subunit” value in data set [7] is “co-fractionated”.

B4: SAV1-ΔN198 (domain or fragment, human, UniProt Q9H4B6 199-383, looked up)
chain: LPLPPGWSVDWTMRGRKYYIDHNTNTTHWSHPLEREGLPPGWERVESSEFGTYYVDHTNKKAQYRHPCAPSVPRYDQPPPVTYQPQQTERNQSLLVPANPYHTAEIPDWLQVYARAPVKYDHILKWELFQLADLDTYQGMLKLLFMKELEQIVKMYEAYRQALLTELENRKQRQQWYAQQHGKNF
notes: SAV1, human, N-terminal 198 residues deleted (WW1, WW2 and SARAH domains); also called SAV1 ∆N198; SAV1 fragment containing both WW domains and the SARAH domain; source: E. coli BL21 (DE3)-T1R, co-expressed with MST2, purified (glutathione-Sepharose, TEV, Superdex 200); not shown: GST, N-terminal, cleaved
Take B4: the binding result in data set [8] is listed as “binds”.

B5: SAV1 ∆N198: SAV1 mutant which contains WW1/2 and SARAH domains (protein)
chain: B4 chain
modifications: left off: GST, N-terminal, cleaved
notes: SAV1 mutant which contains WW1/2 and SARAH domains
Consider B5, for which the “stimulation of MST2 kinase activity toward MOB1” value in [9] is “did not stimulate the MST2 kinase activity toward MOB1”. Also, the “MST2 activation (T180 autophosphorylation) in vitro” value in data set [10] is recorded as “could support MST2 auto-activation”.
